Reference: PMC6310021 (2018)

Target: Metallothionein-2 (UniProt P02795)
Test: SPR

Sequence of Metallothionein-2 (P02795 whole entry): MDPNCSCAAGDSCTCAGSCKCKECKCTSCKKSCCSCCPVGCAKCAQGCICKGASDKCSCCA

B1: Transgelin-2 (protein)
chain: ANRGPAYGLSREVQQKIEKQYDADLEQILIQWITTQCRKDVGRPQPGRENFQNWLKDGTVLCELINALYPEGQAPVKKIQASTMAFKQMEQISQFLQAAERYGINTTDIFQTVDLWEGKNMACVQRTLMNLGGLAVARDDGLFSGDPNWFPKKSKENPRNFSDNQLQEGKNVIGLQMGTNRGASQAGMTGYGMPRQIL
Work on B1 yielded a Kd of 110 nM.
